# According to the DeepSol protein solubility set:
# Assay: soluble on expression in E. coli; label from the status in PepcDB or PDB records
row,Sequence,soluble on expression in E. coli
1,MAHHHHHHMRVPSLPIIIDEFPALAGSRSHSGSGSGSELFFLTHFHTDHMKGLSSAWTAGLIITGTITRQLLLNKFEGLRGRVLGLPFWCRTPVLSAAGAAHSETDSTTATAVPVVHVTLLPAFHIPGSAMIYIETPSGVTYLHTGDFKYTEAAAQMSSLRTFFQSHRVDHLYLDDTWLHLGHTELKSWPALTESPLVGHRGVGIANSGIRVLSKLLDADQVEEAIEAIGRRMDYQRQLHAQWVQQQSQCDSNGTAEALTPSSSSSSASAELSDARLPFIVRVYLHNQFGKELLIQQLAARLRTRALIDDARYARLLTVVEALEEERDDLEAFEGADPARLDGAAPPLSAEELAWRASGGEAARYPYDLNCFVSCSQAQQQKQQQLWARWRYDRGAMSPQQPQPPADHSVKRSCGPPLIEVVRNRASIEPATLQAASAARGGTPYYGVVISGWARLQSQTHGPAASGQVWQVPTTLHSTPQEIVDFVALLRPLSVTPLHYRPSRGEVVMQRLGPYLRVPFVNNHDTGCGATTAATAGRDAVALRGGVVRWMPYLPAYLLLSQMGGSDSRSGLGTSTLLGMLGARDAAAVCDNGLDALEEKPPRGFRIRPAGLPLPSSKAAVAASRSGGEAPGGCDSHTAAITASYFFAPSPTTTTSLPAQGMADVSGKATNPTDTSVSSRVRADGLRISTLLPSWRLSHLTQSYLSTQQSGGKRERVDVEMDGQSMVAHRAERHAATATKIESGERAAKAANDHDKDCPAVLLSSSATTGLLSLSDIADNVLA,not soluble
2,MGILSDKDIAYLKDLFGKELKRKVKIVFFKTEDKTRCQYCEITEQVLEELVSVDPKLELEIHDFDSDKEAVEKYQVEMVPATILLPEDGKDYGIRFYGVPSGHEFGTLIQDIITVSEGKPQLSEESIQKLQSLEEPIRISVFVTPTCPYCPRAVLMAHNMAMASDKIIGEMIEANEYWELSEKFGVSSVPHIVVNRDPSKFFVGAYPEKEFINEVLRLAKG,soluble
3,MAHHHHHHMWLNDFFAMELDGRAAMDANWGVLLAAFFRGPKKYIRDAGVLGEMQASDRYKMMERAVRDEMDMEEDVSRLYNNGMYELLRWLVATAEVTASAHEVTKSFLDAAAEEARNPTTTSAPRYLEGCYESVYNARWNHVVEVPGGEGTGLEVREGEPPQSWTYRAVGRTLEKDDGVQQFGATRPVLMVLTSDKGWPYSRNTIQDLPKDVFVNCEVDRVWQIVKGDLTAWFSTDGGTDFRPERRVLIGTPGIGKLVAAGSYLLYQLLHYDLEKIQVVVHCFGGGDAYVSDKTTRAATRYGDEDMCISELRSLRGHGRNVYIIYDVAKEGTPPPRHFAPTSGWGMIAVSFPKVTNYDEWAKQLQAARIIVNCPD,not soluble
4,MNKLLPTSTAGSLPKPSWLAQPEKLWSPWKLQDEELTEGKQDALRLSLQEQQHAGIDIVSDGEQTRQHFVTTFIEHLSGVDFEKRETVRIRNRYDASVPTVVGAVSRPKPVFVDDAKFLRQQTRQPIKWALPGPMTMIDTLFDAHYKSREKLAWEFAKILNQEAKELEAAGVDIIQFDEPAFNVFFDEVNDWGVATLERAIEGLNCETAVHICYGYGIKANTDWKQTLGSEWRQYEESFPKLQASTIDIVSLECHNSHVPIDLIELVRGKKVMVGAIDVASNTIETPQEVADTLRKALRFVDADKLYPSTNCGMAPLARHVARGKLSALSAGADIIRAELSAQLEHHHHHH,not soluble
5,SALSCSLQGPPEGSIENLINTISRDVTTLQSYMQRRKEEYDCILKTCPVCGAVEEYAFSTVSPTATFEQLNPENRILYELQQINEQRRTLYEDIVSVQQKPECELCLLCALHESAFECGATPTANSFTSQVQSQHTQQQQTPVFSESVVPRPTILSNKTRVFVV,soluble
6,MPQILVDADACPVKAEIKQVAKEFQLEVTFVASFNHYSVNTNGENWIFVDTGKESADMRMMNLAKKGDIIVTQDIGLASILLAKGTFVFSNRGELYREEEMSLMLDIRYRHAKERQQGKYSKGPKAMSDQDRSLFKDRLTTFLQNKLEHHHHHH,soluble
7,MGSDKIHHHHHHMLSVEKLACTHGDSHYLFDEVTFSLNPGERILISGYSGCGKSTLALLLSGLKESGKGQVLLNGSLIEPSDVGFLFQNPDLQFCMDTVAHELYFILENLQIEPEQMQDRSEFVLAQVGLKGFQNRLIYTLSQGEKQRLALATIFLKSPKLIILDEAFANLDQESASQLLQLVLNYQANNQSMLIVIDHLITYYQDIMDHYFWLEKRLTRVNFDYMLNRLNVFELEKKSHNTGDKLLSIKDFQVKLSKNKFISYLDFDLASGERLCLDGPSGVGKSSLFMGLLGLYRTKGKKQFTHRKQIPISFLFQNPLDQFIFSTVYDEIFQVCKDSNKARDILETINLWDKKQFSPFQLSQGQQRRLAIGSILASDSKLLLLDEPTYGQDAYHANMITTLLLSYCHKNHCGVIFTSHDPHLKECFATRFLEVSSCSI,not soluble
8,MHRIMLSGYLKALVDAGILKERRIKPVTLYSVLRRQDMNIYELTGNAIRSSGSKMDGDTALRLLYAILRRPVFLTEVERCGTKKPLNFETIIWERRKDLIRKLAESGIIIPETDMLVVPKDATADNTIDLISTLLGQVIDLKKYTIPEAEKKQKTLDF,not soluble
9,AIAALKDYALEKEKVKKFLQEFYQDDELGKKQFKYGNQLVRLAHREQVALYVDLDDVAEDDPELVDSICENARRYAKLFADAVQELLPQYKEREVVNKDVLDVYIEHRLMMEQRSRDPGMVRSPQNQYPAELMRRFELYFQGPSSSKPRVIREVRADSVGKLVTVRGIVTRVSEVKPKMVVATYTCDQCGAETYQPIQSPTFMPLIMCPSQECQTNRSGGRLYLQTRGSRFIKFQEMKMQEHSDQVPVGNIPRSITVLVEGENTRIAQPGDHVSVTGIFLPILRTGFRQVVQGLLSETYLEAHRIVKMNKSEDDESGAGELTREELRQIADVIFATVRELVSGGRSVRFSEAEQRCVSRGFTPAQFQAALDEYEELNVWQVNASRTRITFV,soluble
10,MPFILRRERSILKTALPPIRDDAVLCPLLPFQSAQLKEVERKHHAGTLSGNPHIQYRKILLHPHTTQSFLHVDEEVVCTSGKLLVLDFVMRFLQRTQHKLLVVCGWTLILDIVETLCGMRGIPYVRLDGRTMVKQREANIRGFNRSVANGNGVVEEAGGGGGDAEGDAATSRPRRNSRQRASTDTTGGPSPNADGRGDEEDGSSLPLATPCCFLISKVAGGAGLNLQAADTVFLLDVDYNPQRDAQALSRVYRVGQSKEVRVFRLIIDHAIEHDIVAIHEAKDDLGRAVVQAGCYDLHSSAHEREAALQGIFRAGALSRLSQQWTTTTRTADDTQGDSGEEEREEAVPSPCASFPPMTFPRCDLKDEGGADSDTEEVGKASPSPAQKSTDLHCVFISGGSGGARAMSSAPRKQVKTEMESEGSGRLADAADGEISVAVAGDVNPQCALLPHRRRRRHISFKLEKDDSEEGGGKAGRGDPAADPAGNARKLANPATAPLLFTAPPPHPSMTAAEVGEAVAAATARVQAPAEHRLAMRERLEEVLLRRKGERHVLEDMFRSV,soluble
11,MNYGFVKVAAAVPRVKVADCKFNSERLEGLITIAEGKGVQILTFPEMCITGYTCGDLFAQQLLLEQAEMALIQILNSTRQLDIISILGMPVVVNSTVINAAVVIQKGKILGVVPKTYLPNYKEFYEQRWFTSALQVSENSVRLCGQIVPMGNNLLFETAETTFGIEICEDLWATVPPSSSLALQGAEIIFNLSADDEGIGKHNYLCSLISQQSARCISGYVFSSSGFGESTTDVVFAGNGLIYENGYLLARSERFCMEEQLIINEIDVECIRAERRVNTTFAANKANCPGLEHHHHHH,not soluble
12,MSEEKQTVEQNETEEQEIIEEQAAADEQQEETNESELLQNQINELQGLLEEKENKLLRVQADFENYKRRSRLEMEASQKYRSQNIVTDLLPALDSFERALQVEADNEQTKSLLQGMEMVHRQLVEALKKEGVEAIEAVGQEFDPNLHQAVMQAEDENYGSNIVVEEMQKGYKLKDRVIRPSMVKVNQ,not soluble
13,MDKLSLEEKVDLLIENGIRILNKAYALEKKPVDMGHGVLLYPSEFHLIETAGKNPAENLTSISSRLGVTKGAISQMVKKLEKKGLVKKVRVPGNKKDVMLELTDFGREAFEWHKSLHESMEAGIRKELEGMSSSEMETFLRVYGHLERMLDRCMERYR,not soluble
14,MAHHHHHHMGQGFSRAQMEEYKELVKDRFSEEAIEFLFMKFHKAAPEGVMTPVEFKRYIDSTGVYKNYRRTHLASWFPSYAKYTHSKGGNRAVRKTSAQILDREMYLHLFRAYDRDCDGVISFREFLLYHLAVMYSTEELFVVVFNAYDDDQDGYLSLDDIRNTITAATRYVGDCDVEDQEVQRVIDEEAQRLMFFLDVRKDGRIRRDDMRLITQKHPEVLEKMKNLM,soluble
